Data from article PMC9934533.

Target: hybrid aspen (poplar) cellulose synthase isoform-8 (CesA8) (hybrid aspen (poplar))
Test: cryo-EM structure

Substance: hybrid aspen (poplar) cellulose synthase isoform-8 (CesA8) (enzyme)
- stoichiometry N: 3
